Source: patent US20160185837A1, “GIP AND GLP-1 RECEPTOR DUAL-AGONISTS FOR THE TREATMENT OF DIABETES” (Medimmune Limited, priority 2013, published 2016)

T1: human GIP receptor (human) (UniProt P48546)
T1 sequence (looked up): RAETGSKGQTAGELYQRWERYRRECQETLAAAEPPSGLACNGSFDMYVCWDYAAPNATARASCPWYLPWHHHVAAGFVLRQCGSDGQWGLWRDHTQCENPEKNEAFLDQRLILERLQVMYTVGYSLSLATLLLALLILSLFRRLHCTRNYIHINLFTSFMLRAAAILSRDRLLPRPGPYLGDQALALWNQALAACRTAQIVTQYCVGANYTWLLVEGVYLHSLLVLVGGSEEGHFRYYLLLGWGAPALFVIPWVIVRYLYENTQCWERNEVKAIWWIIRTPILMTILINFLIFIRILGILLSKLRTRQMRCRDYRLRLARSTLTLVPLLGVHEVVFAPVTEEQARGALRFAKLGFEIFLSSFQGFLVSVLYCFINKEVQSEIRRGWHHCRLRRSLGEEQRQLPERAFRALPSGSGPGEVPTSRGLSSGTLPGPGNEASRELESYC

T2: rat GIP receptor (rat) (UniProt P43219)
T2 sequence (looked up): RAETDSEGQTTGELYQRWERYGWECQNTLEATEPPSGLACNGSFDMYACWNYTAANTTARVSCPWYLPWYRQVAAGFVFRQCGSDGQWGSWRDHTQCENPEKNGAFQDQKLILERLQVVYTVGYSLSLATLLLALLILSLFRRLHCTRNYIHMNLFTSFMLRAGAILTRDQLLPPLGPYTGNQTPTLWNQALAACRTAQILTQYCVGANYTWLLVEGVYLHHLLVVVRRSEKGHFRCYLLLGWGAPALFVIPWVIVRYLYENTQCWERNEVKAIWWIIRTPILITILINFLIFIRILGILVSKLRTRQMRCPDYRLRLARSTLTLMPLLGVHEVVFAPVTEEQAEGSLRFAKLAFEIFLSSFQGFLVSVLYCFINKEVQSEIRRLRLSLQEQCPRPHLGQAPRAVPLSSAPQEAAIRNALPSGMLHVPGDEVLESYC

T3: mouse GIP receptor (mouse) (UniProt Q0P543)
T3 sequence (looked up): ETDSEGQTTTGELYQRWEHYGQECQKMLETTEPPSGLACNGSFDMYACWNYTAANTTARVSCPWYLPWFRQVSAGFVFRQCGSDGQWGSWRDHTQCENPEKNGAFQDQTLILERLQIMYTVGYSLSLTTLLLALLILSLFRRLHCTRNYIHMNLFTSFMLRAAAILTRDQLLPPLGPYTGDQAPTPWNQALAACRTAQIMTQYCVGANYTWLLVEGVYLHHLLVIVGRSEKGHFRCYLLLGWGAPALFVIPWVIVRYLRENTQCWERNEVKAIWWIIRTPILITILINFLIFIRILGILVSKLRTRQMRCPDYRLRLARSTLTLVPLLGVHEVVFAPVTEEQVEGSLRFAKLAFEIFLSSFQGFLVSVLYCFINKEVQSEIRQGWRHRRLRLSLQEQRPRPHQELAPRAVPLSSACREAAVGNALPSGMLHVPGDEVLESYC


Experiments:
Experiment in all cases: cell-based or functional assay
[1] = target: mouse GLP-1 receptor (mouse) (UniProt O35659)
mouse GLP-1 receptor (mouse), sequence (O35659 22-463): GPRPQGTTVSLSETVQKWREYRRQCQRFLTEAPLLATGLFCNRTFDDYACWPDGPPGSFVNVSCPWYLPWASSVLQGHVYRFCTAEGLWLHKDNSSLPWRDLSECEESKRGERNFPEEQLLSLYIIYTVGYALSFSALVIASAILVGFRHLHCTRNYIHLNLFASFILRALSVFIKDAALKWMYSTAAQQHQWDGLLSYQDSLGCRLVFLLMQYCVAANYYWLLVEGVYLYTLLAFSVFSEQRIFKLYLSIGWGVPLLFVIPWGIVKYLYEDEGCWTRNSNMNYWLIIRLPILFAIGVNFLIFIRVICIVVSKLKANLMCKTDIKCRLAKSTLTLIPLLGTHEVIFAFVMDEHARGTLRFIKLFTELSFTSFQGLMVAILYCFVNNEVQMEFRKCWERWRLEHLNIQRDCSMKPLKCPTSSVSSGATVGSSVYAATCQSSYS

[2] = target: T1, human GIP receptor (human)
rat GIP receptor (rat) = target: T2, rat GIP receptor (rat)
[3] = target: human GLP-1 receptor (human) (UniProt P43220)
human GLP-1 receptor (human), sequence (P43220 24-463): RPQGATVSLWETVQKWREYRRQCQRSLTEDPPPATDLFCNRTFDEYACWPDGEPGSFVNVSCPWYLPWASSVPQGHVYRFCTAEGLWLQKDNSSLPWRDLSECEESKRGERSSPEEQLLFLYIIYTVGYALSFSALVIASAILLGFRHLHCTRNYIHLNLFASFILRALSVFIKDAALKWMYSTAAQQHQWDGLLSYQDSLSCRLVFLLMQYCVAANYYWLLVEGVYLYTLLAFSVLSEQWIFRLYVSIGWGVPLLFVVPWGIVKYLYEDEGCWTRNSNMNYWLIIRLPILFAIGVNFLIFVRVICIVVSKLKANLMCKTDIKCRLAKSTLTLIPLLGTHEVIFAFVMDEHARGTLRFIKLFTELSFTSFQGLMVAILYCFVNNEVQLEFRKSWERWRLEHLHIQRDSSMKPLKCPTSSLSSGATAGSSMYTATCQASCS

[4] = target: T3, mouse GIP receptor (mouse)
rat GLP-1 receptor (rat) = rat GLP-1 receptor (rat) (UniProt P32301)
rat GLP-1 receptor (rat), sequence (P32301 22-463): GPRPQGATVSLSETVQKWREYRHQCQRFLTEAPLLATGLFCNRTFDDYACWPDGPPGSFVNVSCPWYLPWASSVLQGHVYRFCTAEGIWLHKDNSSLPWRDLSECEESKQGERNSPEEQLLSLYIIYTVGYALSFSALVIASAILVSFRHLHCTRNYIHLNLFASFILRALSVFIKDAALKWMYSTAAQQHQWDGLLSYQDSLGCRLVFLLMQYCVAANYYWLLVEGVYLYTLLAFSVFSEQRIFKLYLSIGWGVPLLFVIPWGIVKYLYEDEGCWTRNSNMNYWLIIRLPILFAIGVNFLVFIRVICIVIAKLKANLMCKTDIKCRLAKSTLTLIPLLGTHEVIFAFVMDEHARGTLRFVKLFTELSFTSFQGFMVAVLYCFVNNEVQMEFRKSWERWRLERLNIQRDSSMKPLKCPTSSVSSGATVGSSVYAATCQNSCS

[5] = target: human glucagon receptor (human) (UniProt P47871)
human glucagon receptor (human), sequence (P47871 26-477): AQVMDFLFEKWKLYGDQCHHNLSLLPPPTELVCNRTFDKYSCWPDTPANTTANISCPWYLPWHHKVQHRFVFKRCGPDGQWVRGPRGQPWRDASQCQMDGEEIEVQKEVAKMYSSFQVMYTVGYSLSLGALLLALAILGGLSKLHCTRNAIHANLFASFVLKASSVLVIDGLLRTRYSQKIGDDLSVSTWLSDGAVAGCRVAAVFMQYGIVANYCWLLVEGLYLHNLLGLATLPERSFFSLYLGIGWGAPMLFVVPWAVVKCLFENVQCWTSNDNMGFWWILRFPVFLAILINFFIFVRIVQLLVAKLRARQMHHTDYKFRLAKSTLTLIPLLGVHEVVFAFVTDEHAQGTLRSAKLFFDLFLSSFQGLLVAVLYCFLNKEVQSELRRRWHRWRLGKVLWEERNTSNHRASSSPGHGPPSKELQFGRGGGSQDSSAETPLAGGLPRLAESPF

| cAMP EC50 [1] | cAMP EC50 [2] | cAMP EC50 (rat GIP receptor (rat)) | cAMP EC50 [3] | cAMP EC50 [4] | cAMP EC50 (rat GLP-1 receptor (rat)) | cAMP EC50 [5] | cAMP EC50, Batch 2 [1] | cAMP EC50, Batch 2 (rat GIP receptor (rat)) | cAMP EC50, Batch 2 [3] | cAMP EC50, Batch 2 [4] | cAMP EC50, Batch 2 (rat GLP-1 receptor (rat)) | cAMP EC50, Batch 2 [5] | Binder |
| --- | --- | --- | --- | --- | --- | --- | --- | --- | --- | --- | --- | --- | --- |
| 30 nM | 0.012 nM | 1.1 nM | 0.47 nM | 18 nM | 0.16 nM | > 1560 nM |  |  |  |  |  |  | IP385 (Fc fusion) YSEGTFTSDYSIYLDRQAIDEFIAWLLKGGGGGGGSGGGGSGGGGSGGGGSACPPC |
| 10 nM | 0.0095 nM | 0.06 nM | 0.54 nM | 10 nM | 0.23 nM | > 17600 nM |  |  |  |  |  |  | IP394 (Fc fusion) YSEGMHTSDLSKLLERQAIDEFIAWLLKGGAAAGGSGSTASSGSGSATGGGGAATHTCPPC |
| 1.2 nM | 0.0093 nM | 0.19 nM | 0.11 nM | 0.28 nM | 0.057 nM | 330 nM | 2.5 nM | 0.014 nM | 0.11 nM | 0.78 nM | 0.01 nM | 250 nM | IP396 (Fc fusion) YSEGTFTSDYSKLLERQAIDEFIAWLLKGGGGGGGSGGGGSGGGGSGGGGSACPPC |
| > 1130 nM | 0.26 nM | 1.7 nM | 230 nM | 3.2 nM | 47 nM | 1100 nM |  |  |  |  |  |  | IP305 (Fc fusion) YSEGTFISDYSIALAAAAVRDFVNWLLAGGGGGGGSGGGGSGGGGSGGGGSATHTCPPC |
| > 906 nM | 0.23 nM | 0.88 nM | > 906 nM | 15 nM | 450 nM | 740 nM |  |  |  |  |  |  | IP314 (Fc fusion) YSEGTFISDYSKLLAAAAVRDFVNWLLAGGGGGGGSGGGGSGGGGSGGGGSATHTCPPC |
| 93 nM | 0.018 nM | 0.055 nM | 26 nM | 0.083 nM | 7 nM | 1200 nM |  |  |  |  |  |  | IP302 (Fc fusion) YSEGTFISDYSIALAAAAQQDFVNWLLAGGGGGGGSGGGGSGGGGSGGGGSATHTCPPC |
| > 1520 nM | 0.025 nM | 0.09 nM | 1300 nM | 0.17 nM | 700 nM | 1500 nM |  |  |  |  |  |  | IP308 (Fc fusion) YSEGTFISDYSIALAAAAAKDFVNWLLAGGGGGGGSGGGGSGGGGSGGGGSATHTCPPC |
| 1500 nM | 0.074 nM | 0.43 nM | 670 nM | 0.95 nM | 61 nM | > 2420 nM |  |  |  |  |  |  | IP311 (Fc fusion) YSEGTFISDYSIALAAAAIDDFVNWLLAGGGGGGGSGGGGSGGGGSGGGGSATHTCPPC |
| 750 nM | 0.026 nM | 0.044 nM | 98 nM | 0.21 nM | 50 nM | > 1250 nM |  |  |  |  |  |  | IP332 (Fc fusion) YSEGTFTSDYSIALAAAAQQDFVNWLLAGGGGGGGSGGGGSGGGGSGGGGSGGGGSGGGGSA |
| > 1080 nM | 0.0086 nM | 0.015 nM | > 1080 nM | 0.019 nM | 430 nM | > 1080 nM |  |  |  |  |  |  | IP333 (Fc fusion) YSEGTFISDYSIALAAAAQQDFVNWLLKGGGGGGGSGGGGSGGGGSGGGGSGGGGSGGGGSA |
| > 455 nM | 0.029 nM | 0.056 nM | 130 nM | 0.3 nM | 120 nM | > 455 nM |  |  |  |  |  |  | IP334 (Fc fusion) YSEGTFTSDYSIALAAAAQQDFVNWLLKGGGGGGGSGGGGSGGGGSGGGGSGGGGSGGGGSA |
| 670 nM | 4.7 nM | 5.1 nM | 75 nM | 43 nM | 23 nM | > 3560 nM |  |  |  |  |  |  | IP342 (Fc fusion) YSEGTFTSDYSAAAEAAAAAAFAAWLAAAAGGGGGSGGGGSGGGGSGGGGSACPPC |
| 330 nM | 0.0096 nM | 0.0079 nM | 72 nM | 0.017 nM | 22 nM | 24 nM |  |  |  |  |  |  | IP321 (Fc fusion) YSEGTFISDYSIAMDKIHQQDFVNWLLAGGAAAGGSGSTASSGSGSATGGGGAATHTCPPC |
| > 2740 nM | 0.0058 nM | 0.0067 nM | > 5480 nM | 0.02 nM | > 2740 nM | 280 nM |  |  |  |  |  |  | IP335 (Fc fusion) YSEGTFISDYSIAMDKIHQQDFVNWLLAQKGGGGGSGGGGSGGGGSGGGGSA |
| > 2260 nM | 0.005 nM | 0.0047 nM | > 4510 nM | 0.012 nM | > 2260 nM | 200 nM |  |  |  |  |  |  | IP336 (Fc fusion) YSEGTFISDYSIAMDKIHQQDFVNWLLAQKGGGGGSGGGGSGGGGSGGGGSGGGGSGGGGSA |
| > 1150 nM | 0.0062 nM | 0.0052 nM | > 2300 nM | 0.013 nM | > 1150 nM | 200 nM |  |  |  |  |  |  | IP337 (Fc fusion) YSEGTFISDYSIAMDKIHQQDFVNWLLAQKGGGGGSGGGGSGGGGSGGGGSGGGGSGGGGSGGGGSA |
| > 945 nM | 0.0052 nM | 0.005 nM | > 1890 nM | 0.012 nM | > 945 nM | 190 nM |  |  |  |  |  |  | IP338 (Fc fusion) YSEGTFISDYSIAMDKIHQQDFVNWLLAQKGGGGGSGGGGSGGGGSGGGGSGGGGSGGGGSGGGGSGGGGSAN |
| > 8550 nM | 0.0053 nM | 0.0062 nM | > 8550 nM | 0.011 nM | > 8550 nM | 200 nM |  |  |  |  |  |  | IP344 (Fc fusion) YSEGTFISDYSIAMDKIHQQDFVNWLLAQKGGGGGSGGGGSGGGGSGGGGSGGGGSA |
| 820 nM | 0.0036 nM | 0.0063 nM | 110 nM | 0.0098 nM | 210 nM | 130 nM |  |  |  |  |  |  | IP351 (Fc fusion) YSEGTFISDYSIAMDKIHQQDFVNWLLAQKPSSGAPPPSGGGGSGGGGSGGGGSGGGGSACPPC |
| > 16600 nM | 0.0034 nM | 0.0085 nM | > 9130 nM | 0.03 nM | > 16600 nM | 540 nM |  |  |  |  |  |  | IP386 (Fc fusion) YSEGTFISDYSIAMDKIHQQDFVNWLLAQKGGGGGSGGGGSGGGGSGGGGSACPPC |
| > 1470 nM | 0.0045 nM | 0.0075 nM | 370 nM | 0.019 nM | 110 nM | 220 nM |  |  |  |  |  |  | IP387 (Fc fusion) YSEGTFISDYSIAMDKIHQQDFVNWLLAQKGGGGGSGGGGSGGGGSGGGGSGGGGSGGGGSGGGGSGGGGSACPPC |
